T1: human DLL3 (endogenous, on SCLC cell lines NCI-H82 and SHP77 and in SCLC tissue) (human, UniProt Q9NYJ7 27-618)
T1 construct: whole, on cells; also called SCLC cell lines expressing DLL3
T1 sequence (looked up): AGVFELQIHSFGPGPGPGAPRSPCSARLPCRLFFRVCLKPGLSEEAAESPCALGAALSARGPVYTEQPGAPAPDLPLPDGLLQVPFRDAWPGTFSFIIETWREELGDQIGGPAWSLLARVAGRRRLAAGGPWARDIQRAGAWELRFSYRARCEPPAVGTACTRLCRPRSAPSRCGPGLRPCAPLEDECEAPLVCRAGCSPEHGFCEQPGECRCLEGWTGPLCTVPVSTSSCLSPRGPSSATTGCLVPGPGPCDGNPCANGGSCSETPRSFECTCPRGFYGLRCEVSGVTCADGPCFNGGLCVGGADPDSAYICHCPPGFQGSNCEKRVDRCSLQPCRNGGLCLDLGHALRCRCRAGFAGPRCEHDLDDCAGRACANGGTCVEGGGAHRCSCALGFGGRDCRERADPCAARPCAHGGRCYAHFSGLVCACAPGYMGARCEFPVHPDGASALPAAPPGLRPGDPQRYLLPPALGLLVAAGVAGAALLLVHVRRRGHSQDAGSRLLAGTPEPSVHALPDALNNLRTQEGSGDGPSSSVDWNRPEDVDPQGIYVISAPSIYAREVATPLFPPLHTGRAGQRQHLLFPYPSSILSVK

B1: DLL3#5/CD3#1 (bispecific antibody, human IgG1, kappa, lambda, L234A L235A)
chain 1: not shown
chain 2: EAVVTQEPSLTVSPGGTVTLTCRSSTGAVTTSNYANWVQEKPGQLPRGLIGGTNKRAPWVPARFSGSLLGGKAALTLSGAQPEDEAEYFCALWYSNLWVFGGGTKLTVLGQPKAAPSVTLFPPSSEELQANKATLVCLISDFYPGAVKVAWKADGSPVNTGVETTTPSKQSNNKYAASSYLSLTPEQWKSHRSYSCQVTHEGSTVEKTVAPAECSGGGGSEGKSSGSGSESKSTEGKSSGSGSESKSTGGGGSEVQLVESGGGLVQPGGSLKLSCAASGFTFNTYAMNWVRQAPGKGLEWVARIRSKYNNYATYYADSVKDRFTISRDDSKNTAYLQMNNLKTEDTAVYYCVRHGNFGNSYVSWFAYWGQGTLVTVSAASTKGPSVFPLAPSSKSTSGGTAALGCLVKDYFPEPVTVSWNSGALTSGVHTFPAVLQSSGLYSLSSVVTVPSSSLGTQTYICNVNHKPSNTKVDKRVEPKSCDKTHTCPPCPAPEAAGGPSVFLFPPKPKDTLMISRTPEVTCVVVDVSHEDPEVKFNWYVDGVEVHNAKTKPREEQYNSTYRVVSVLTVLHQDWLNGKEYKCKVSNKALPAPIEKTISKAKGQPREPQVYTLPPSREEMTKNQVSLSCAVKGFYPSDIAVEWESNGQPENNYKTTPPVLDSDGSFFLVSKLTVDKSRWQQGNVFSCSVMHEALHNRFTQKSLSLSPG
notes: Heterodimer of one DLL3 chain and one CD3 chain (scFab-Fc, knob-in-hole)
B2: DLL3#18/CD3#1 (bispecific antibody, human IgG1, kappa, lambda, L234A L235A)
chain 1: DIQMTQSPASLAASVGETVTITCRASENIYYSLAWYQQKQGKSPQLLIYNANSLEDGVPSRFSGSGSGTQYSMKINNMQPEDTATYFCKQAYDVPLTFGAGTKLELKRTVAAPSVFIFPPSDEQLKSGTASVVCLLNNFYPREAKVQWKVDNALQSGNSQESVTEQDSKDSTYSLSSTLTLSKADYEKHKVYACEVTHQGLSSPVTKSFNRGECGGGGSEGKSSGSGSESKSTEGKSSGSGSESKSTGGGGSQVQLQQSGPDLVKPGASVKMSCEASGYTFTAYFIHWVKQKPGQGLEWIGYIDPFNDDTNYNVKFKGKATLTSDTSSSIAYMELSSLTSEDSSFYYCARGTSATLDYWGHGTTLTVSSASTKGPSVFPLAPSSKSTSGGTAALGCLVKDYFPEPVTVSWNSGALTSGVHTFPAVLQSSGLYSLSSVVTVPSSSLGTQTYICNVNHKPSNTKVDKRVEPKSCDKTHTCPPCPAPEAAGGPSVFLFPPKPKDTLMISRTPEVTCVVVDVSHEDPEVKFNWYVDGVEVHNAKTKPREEQYNSTYRVVSVLTVLHQDWLNGKEYKCKVSNKALPAPIEKTISKAKGQPREPQVYTLPPSREEMTKNQVSLWCLVKGFYPSDIAVEWESNGQPENNYKTTPPVLDSDGSFFLYSKLTVDKSRWQQGNVFSCSVMHEALHNHYTQKSLSLSPG
chain 2: B1 chain 2
notes: as for B1
B3: DLL3#4/CD3#1 (bispecific antibody, human IgG1, kappa, lambda, L234A L235A)
chain 1: not shown
chain 2: B1 chain 2
notes: as for B1
B4: DLL3#17/CD3#1 (bispecific antibody, human IgG1, kappa, lambda, L234A L235A)
chain 1: DIQMTQSPASLAASVGETVTITCRASENIYYSLAWYQQKQGKSPQLLIYNTNSLEDGVPSRFSGSGSGTQYSMKINSMQPEDTATYFCKQAYDFPLTFGAGTKLELKRTVAAPSVFIFPPSDEQLKSGTASVVCLLNNFYPREAKVQWKVDNALQSGNSQESVTEQDSKDSTYSLSSTLTLSKADYEKHKVYACEVTHQGLSSPVTKSFNRGECGGGGSEGKSSGSGSESKSTEGKSSGSGSESKSTGGGGSQIQLQQSGPEVVKPGASVKISCKASGYTFISYYIHWVKQRPGQGLEWIGWIYPGDGSTNNNEKFKGKTTLTADKSSSTAYMLLSSLTSEDSAVYFCARGEGNAMDDWGQGTSVTVSSASTKGPSVFPLAPSSKSTSGGTAALGCLVKDYFPEPVTVSWNSGALTSGVHTFPAVLQSSGLYSLSSVVTVPSSSLGTQTYICNVNHKPSNTKVDKRVEPKSCDKTHTCPPCPAPEAAGGPSVFLFPPKPKDTLMISRTPEVTCVVVDVSHEDPEVKFNWYVDGVEVHNAKTKPREEQYNSTYRVVSVLTVLHQDWLNGKEYKCKVSNKALPAPIEKTISKAKGQPREPQVYTLPPSREEMTKNQVSLWCLVKGFYPSDIAVEWESNGQPENNYKTTPPVLDSDGSFFLYSKLTVDKSRWQQGNVFSCSVMHEALHNHYTQKSLSLSPG
chain 2: B1 chain 2
notes: as for B1

Biological target: T1, human DLL3 (endogenous, on SCLC cell …)
Assay: flow cytometry titration on NCI-H82 cells, PE anti-human secondary, x-fold over background
Source text: Cells (T cells or human SCLC cells) were stained with increasing concentrations of two-step purified DLL3/CD3 binding proteins with increasing concentrations in FACS buffer (PBS/0.5% BSA/0.05% sodium azide). Bound molecules were detected with PE-conjugated anti-human secondary antibody (Sigma-Aldrich, #P8047).

Binder | EC50 (read off the curve) [nM]
B1 | ~5
B2 | ~1
B3 | ~1
B4 | ~1

From patent US20220251236A1 (Boehringer Ingelheim, published 2022)
